Laboratory results as given in article PMC8913309 (The Journal of Biological Chemistry, 2022).
Numbering of substitutions follows the chain as printed. Names and notes keep the numbering of the source.

B1: Plasmodium falciparum phosphoglycerate mutase 1 (PfPGM1), recombinant His6-tagged WT protein (enzyme)
chain: MTTYTLVLLRHGESTWNKENKFTGWTDVPLSEKGEEEAIAAGKYLKEKNFKFDVVYTSVLKRAICTAWNVLKTADLLHVPVVKTWRLNERHYGSLQGLNKSETAKKYGEEQVKIWRRSYDIPPPKLDKEDNRWPGHNVVYKNVPKDALPFTECLKDTVERVLPFWFDHIAPDILANKKVMVAAHGNSLRGLVKHLDNLSEADVLELNIPTGVPLVYELDENLKPIKHYYLLDSEELKKKMDEVANQGKAK
B2: PfPGM1 P163A, recombinant His6-tagged mutant protein (enzyme, Plasmodium falciparum)
chain: B1 chain with P163A
B3: PfPGM1 K100R, recombinant His6-tagged mutant protein (enzyme, Plasmodium falciparum)
chain: B1 chain with K100R

Target: the molecule itself
Experiment: SEC

Protein | stoichiometry N
B1 | 4
B2 | 2
B3 | 4
